# Experimental data taken from the supplement of paper PMC10724198.
# ± gives the standard deviation of the averaged measurements.
# System: Saccharomyces cerevisiae
# Experiment: protein stability index of tFT-peptide fusion (C-terminal peptide) (PSI (0-1 scale)); higher = more stable (slower turnover)
# Details: genetic background: wild type; temperature: 30 C
# 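Further: PSI is a weighted mean of sequencing reads over stability bins, variants kept only with over 10 reads, mCherry proximal and sfGFP distal, peptide attached via GGGS linker.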
row,Sequence,protein stability index
1,SLPPHHLLISNA,0.645 ± 0.028
2,VDWLCGGLGGVR,0.742 ± 0.11
3,KGRRVSTGRRRR,0.712 ± 0.004
4,GWEVGGGRLGVV,0.716 ± 0.11
5,DNSSLGSIGTDI,0.645 ± 0.046
6,QPSSYPEANRQG,0.671 ± 0.028
7,FVADRLIFGKSL,0.71 ± 0.044
8,WTFVRTPERSEI,0.719 ± 0.0089
9,GVPPFAPPPPPH,0.703 ± 0.015
10,HNKSGEKKKKEA,0.697 ± 0.0076
11,GGDGGSDHHRER,0.6856 ± 0.0044
12,PAHRRLLPWPPA,0.71 ± 0.14
13,STPPPPALPEYQ,0.698 ± 0.023
14,GTQPAAGNTPWA,0.703 ± 0.029
15,VLFATLHVMALK,0.55 ± 0.026
16,PSPHSPPSFLPL,0.729 ± 0.024
17,PPPAASCLLLPL,0.699 ± 0.028
18,RDFCLGFANTVC,0.642 ± 0.028
19,FPLHPLLTSISL,0.68 ± 0.032
20,ASDMHRTNKPRE,0.671 ± 0.085
21,SRLFEFFISRNV,0.706 ± 0.013
22,VLLPRIRPSYSL,0.674 ± 0.045
23,SSKLFVVLPVSR,0.599 ± 0.028
24,PPLPPRSISPVL,0.737 ± 0.11
25,GNCPGYSELGRF,0.6941 ± 0.0044
26,KKKKQKKKYKKT,0.695 ± 0.095

row,Sequence,protein stability index
1,VLPLFSSFSRSP,0.674 ± 0.058
2,PCPPLPGILSSL,0.674 ± 0.035
3,PPPLSPPRPPRH,0.701 ± 0.022
4,LRGSDYIVIGGS,0.656 ± 0.025
5,PTTAPPPRSAGA,0.764 ± 0.051
6,RLAVLKGWTTFV,0.567 ± 0.039
7,VLPGCFSISAPP,0.7038 ± 0.0062
8,GRCQSPRASPSG,0.584 ± 0.013
9,LSALPLTRPLAR,0.709 ± 0.043
10,GVLRAWARLWGN,0.599 ± 0.039
11,GVPYSPKSHRDH,0.643 ± 0.047
12,PPLPFPPPPLPP,0.613 ± 0.029
13,PPSFCFFLLPFL,0.6558 ± 0.0054
14,TPTDPLSLYAFP,0.69 ± 0.013
15,PLPPPVPPPPPP,0.66 ± 0.017
16,GFCRWVRRDDCI,0.693 ± 0.032
17,PHPPLPLSPPPP,0.72 ± 0.0084
18,TNSYRTSVRGER,0.795 ± 0.013
19,EPDCLVSSSVGI,0.686 ± 0.049
20,PPRHTPFSLPPF,0.651 ± 0.074
21,ARTILGSFILHP,0.662 ± 0.049
22,KTRKNNSKKNTK,0.688 ± 0.019
23,CPRPHVLPLAYF,0.646 ± 0.014
24,CECRCECGIGDK,0.632 ± 0.096
25,SLERWNPGGSGV,0.656 ± 0.025
26,TISRRSCGPAQK,0.6743 ± 0.0041

row,Sequence,protein stability index
1,RTSKSLSKVESW,0.6415 ± 0.0031
2,PTLCLPESSGRL,0.705 ± 0.028
3,QSSGGSDSVLFG,0.738 ± 0.041
4,FVSSFSCVGLVL,0.644 ± 0.08
5,VRSRRQLPPADP,0.723 ± 0.083
6,PPARHSPIFPVH,0.786 ± 0.022
7,SRPQTTGPLPPL,0.684 ± 0.05
8,PPRPQPPGSSFS,0.741 ± 0.012
9,EILQDRAVSKGR,0.697 ± 0.039
10,SPGPRLSTRLRQ,0.701 ± 0.077
11,SAYQDFTAILLG,0.703 ± 0.16
12,AGRVGVRGVVGG,0.748 ± 0.1
13,HPNPYTTPGTPA,0.625 ± 0.0078
14,CPGNGVFYSGRG,0.679 ± 0.014
15,PPPPRPACLPSN,0.727 ± 0.018
16,DDSSSFPSLLSF,0.753 ± 0.069
17,PPSRPPPPPPSP,0.702 ± 0.061
18,ENKIKERPKMRY,0.658 ± 0.026
19,PGYFGHVKLSCS,0.646 ± 0.023
20,TIRFWRSIFPHA,0.728 ± 0.051
21,VASKVNLPVWFW,0.702 ± 0.021
22,VGGKSVVRAESS,0.645 ± 0.013
23,CLRGFWSQFMRF,0.678 ± 0.032
24,PHIRPPQCTRPI,0.737 ± 0.015
25,TRVKRQFRRGGI,0.686 ± 0.011
26,VVFSPQFRLPVP,0.66 ± 0.024

row,Sequence,protein stability index
1,LGRRGLSMCGCV,0.634 ± 0.018
2,PCMLSEATQQAH,0.668 ± 0.049
3,RCTLPLSPSCSR,0.6604 ± 0.0037
4,THYSTQPKSTKC,0.689 ± 0.027
5,PTLAFIPIPTLF,0.6051 ± 0.004
6,VVSGDAPVARRA,0.6781 ± 0.0056
7,DVRLGSQGSFRW,0.705 ± 0.01
8,LWSICWNRVFPF,0.6973 ± 0.0017
9,RVLIPLASSPPL,0.77 ± 0.23
10,HVDGGAVLLEGQ,0.67888 ± 0.00049
11,GFSNKKNVPLTR,0.568 ± 0.066
12,QDISESLLRLLR,0.7119 ± 0.0019
13,GVSLREASVAAI,0.7104 ± 0.0055
14,RSWSSIASSSTM,0.7285 ± 0.0037
15,SSPARASLTRPA,0.674 ± 0.038
16,VREKNHTLQMET,0.646 ± 0.017
17,GSRALYCIVPRF,0.661 ± 0.053
18,RKKRNKTQTSKT,0.6936 ± 0.00054
19,PPPPHCPQPPPP,0.72 ± 0.018
20,NGVLRPMATGAP,0.666 ± 0.039
21,ICIKKNTLTKTE,0.669 ± 0.012
22,DIERSAAPRLLL,0.727 ± 0.042
23,HSPSKLSSSTAT,0.681 ± 0.032
24,GRWFGGRGVGEG,0.635 ± 0.013
25,ITKELKNIKQED,0.675 ± 0.0088
26,HRIHRSLLTGGR,0.708 ± 0.021

row,Sequence,protein stability index
1,QGDDNVVGAMNI,0.628 ± 0.089
2,GQYEPEWKRLYC,0.64 ± 0.011
3,IYNGMLREEKSL,0.728 ± 0.017
4,CWVHGRWVSGAS,0.813 ± 0.051
5,GVGQGGPVVVGR,0.665 ± 0.024
6,KKKRKRREKKQN,0.681 ± 0.016
7,VTVGGAWSGTRG,0.647 ± 0.06
8,RPDACTRFGLRV,0.678 ± 0.013
9,LQKRKQMRKIKE,0.646 ± 0.019
10,RYLTLVTNLLCP,0.647 ± 0.0024
11,RRPTKGGPPTLC,0.67 ± 0.032
12,GCPHGTLFVSLE,0.699 ± 0.065
13,IYCGDRGITGGV,0.683 ± 0.019
14,RVRGGAGRGKRE,0.686 ± 0.032
15,THPLPAPAPLRP,0.762 ± 0.027
16,AIGDLQKAVPLM,0.718 ± 0.047
17,PPSPPPTTPSPP,0.656 ± 0.035
18,PLVSGMLTSHLA,0.6613 ± 0.0014
19,VGRWVLEARGVV,0.715 ± 0.031
20,RGRRGAGRKGGP,0.751 ± 0.15
21,RAREFRSRNIGD,0.74 ± 0.0058
22,EGLCVLMTQVGG,0.576 ± 0.016
23,FFRFLLPFLPPS,0.70866 ± 0.0006
24,DMPIVVDGSLVR,0.684 ± 0.027
25,QYILGLLLVPLG,0.587 ± 0.032
26,SVFPSAVCSLGC,0.6895 ± 0.005

row,Sequence,protein stability index
1,VWLAGVMVGRFQ,0.5575 ± 0.0039
2,KQKKIGNKITNK,0.667 ± 0.008
3,LWFCGLWPRVSG,0.6384 ± 0.00068
4,FCWSFGVLLSFS,0.559 ± 0.0099
5,LLSTPPIVSPPA,0.6987 ± 0.0031
6,SLLPPRLPPPPF,0.633 ± 0.016
7,RAAIPAHPFVSR,0.676 ± 0.027
8,LGGERERGRKRG,0.672 ± 0.048
9,HFSRNYINENVS,0.716 ± 0.04
10,PLPLPPPPHCLS,0.702 ± 0.027
11,TRGAPHHSSGRG,0.693 ± 0.033
12,FLTVDGKLMRGP,0.699 ± 0.021
13,PSSSSPPSLTPA,0.672 ± 0.097
14,RVGGGGGPSGVV,0.751 ± 0.029
15,GRFGIGLYLCFL,0.597 ± 0.094
16,PTPPPLTPPPCF,0.678 ± 0.014
17,PPPPPPPHPTPT,0.676 ± 0.039
18,VVCSSGFVSDPG,0.5582 ± 0.0049
19,YCALVSVGVVGG,0.542 ± 0.0036
20,GERGGKGHEQGL,0.623 ± 0.043
21,ADYSRHSCSSSP,0.681 ± 0.053
22,CFKPLRLEPGCC,0.665 ± 0.094
23,FCLLPPFPFFRS,0.661 ± 0.022
24,KKKQTKGNQKPK,0.7623 ± 0.0011
25,GGGARPTLDRAR,0.637 ± 0.028
26,PPPPPLPQAPPT,0.687 ± 0.014

row,Sequence,protein stability index
1,FCCRLSGFSILG,0.663 ± 0.033
2,NVCICSIRNATN,0.804 ± 0.11
3,APNPYHKPPSLR,0.701 ± 0.11
4,WPLKTMLFGIWV,0.562 ± 0.028
5,LAPRPPAPTPTL,0.603 ± 0.053
6,PPDLPPPPPPPT,0.7 ± 0.055
7,ARRIEGADAERG,0.668 ± 0.048
8,DNSDIKKGARRI,0.707 ± 0.014
9,GTWAGGGWSCES,0.696 ± 0.039
10,KRARLWQKRVEK,0.754 ± 0.14
11,EKQIREERRKIE,0.704 ± 0.062
12,CGRACWTGEDDV,0.68 ± 0.037
13,DEDIHQTIGKKG,0.716 ± 0.056
14,PFPSIPLPPPSR,0.703 ± 0.03
15,LVGGGGGVGSLV,0.628 ± 0.042
16,SSSAPSSVPPLG,0.734 ± 0.016
17,VDEREKGSKQGK,0.689 ± 0.031
18,LSRPCPFYPPPR,0.701 ± 0.037
19,PLCSPPSPASNL,0.714 ± 0.067
20,EREGVREGEGRV,0.654 ± 0.02
21,GFLIGRLGEGSG,0.728 ± 0.023
22,FFLLPHPSRFFP,0.734 ± 0.025
23,LAPPPRPPLAPP,0.637 ± 0.03
24,GVGGGGCVLVRG,0.723 ± 0.018
25,LPPHPPSPPFLP,0.588 ± 0.023
26,PGTGGHKRASPV,0.6293 ± 0.0016

row,Sequence,protein stability index
1,PSPPPRPPLSPP,0.715 ± 0.052
2,RRPSRLLGPERI,0.717 ± 0.025
3,RYKTESKRDIEK,0.696 ± 0.062
4,KKKKKKEKGDST,0.716 ± 0.076
5,WGGGGGGGAAGS,0.679 ± 0.08
6,YAAGGPLLLCNQ,0.66 ± 0.021
7,GMWVGGRGVVGV,0.627 ± 0.0076
8,ALVSRGPCVFGW,0.662 ± 0.045
9,ASAWHGLVFPPF,0.779 ± 0.01
10,RFLDVSRYAGGV,0.705 ± 0.025
11,YFAASFMSSSGI,0.76 ± 0.078
12,GGGGSRRGVGDR,0.687 ± 0.013
13,GAFRQGYCLSGL,0.67 ± 0.025
14,VRDRTSRGMRPA,0.6945 ± 0.0043
15,TCHPLCSSSADR,0.712 ± 0.039
16,PRLPPTDHAGAL,0.675 ± 0.04
17,KRGRAIVVQLWV,0.578 ± 0.021
18,QGKNAPERTIKQ,0.631 ± 0.025
19,FTVCVIYSKPSQ,0.5872 ± 0.0013
20,PLPPPPFSVSPP,0.724 ± 0.012
